Experimental data reported in article PMC11307329.

Each sequence was assayed on T1, XisF4 (native excisionase) (Pseudomonas aeruginosa PAO1), ORF:74e9b1d3 (assay: EMSA).
T1 sequence: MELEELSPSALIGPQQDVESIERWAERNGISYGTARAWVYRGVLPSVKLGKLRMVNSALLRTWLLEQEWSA

Sequence | binding
AGCTTTCATGAATCTCTCCGTTGATTATGTATAGGCCTAACGCCTGAACCTCAACAAGCACTTACCATGCCAAATATCAAACCGCGCCACGATCAAGGAAACTGGGTTCCTTTCTCGATGAGAGTCAAACTTAAAACGGACAGGATGTGACATTTTTTGACAGCTGGATTTCCTCGATTTGGCAGCCCCTGTTATCTGCGTTATAAGGCACCTCAATAGCCCTTCTGCGATTCCTTCCCCATG (double strand) [pilA promoter] | binds
CGCGCAGACTGTATCGAAGTATTTCCGACGCCTGGCGTTCTGTGATCGATTCGGCTCGGTTGGAGTGCGCTGCCGCACGCTTTACAGCCGGACGGAGCGGGGCACCGGATCTACTGCAAAAGCTGATAGTTGTCTTCCCGGGTGACGGCGTTGCACGGTCCTGCGGCGTGCAACCCGGCCTGGGCGAAATACCGGCGGAGCGGACCAGGCTATCCCGTCGGAGGCGATGTCGCCGGGCTGCTGGCTTTCAAGGTTTCCCTTCGATGACCAGGAGCTACCCATG (double strand) [lasA promoter] | binds
CGGTCGCCTTGTTCATGAGAAAAGCCTTTTAAAACAGTGAGTTGCGCAATAATTTCAGCCGTACCTCTTTCGAGGTAGGGGCGCGCATCTAGGCACGGAACGGCCGGTATTTCATTGATTCCTATCAAATTTGCATAGGAACACCTTCCCTAGGCTCTCGCTGAACGCTGTCCGTGCAGAGAGTTTAGCC (double strand) [narL promoter] | binds
GCTCATTCCGTCACTATTCGTGGCATTAGCCATACGCAGCTAGAGAAATAATTACCCTGGAGAAATTATTTCCCCAAAGCCACGTCAGGGCAACTATTTCCCCGGAATAAATTTCTATATGAGCACGTCAGCCGATAGAGCAAGACTATTAATCAAGAAAATCGGCCCCAAAAAGGTCAGCCTTCACGGGGGCGATTACGAGAGATGGAAAAGCGTCAGCAAAGGCGCGATTCGCGTGAGCACGGAAGAAATCGACGTCCTAGTAAAAATTTTCCCTAATTACGCATTATGGATTGCAAG (double strand) [xisF4 promoter] | binds
